Assay results published in the supplement of paper PMC12042874.
± gives the uncertainty stated by the source.

Assay: amyloid nucleation score (Sup35N fusion, yeast selection) (log enrichment); library NNK2; higher = more nucleation; inactive = no reads after selection
Procedure, shortened: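 Using DiMSum, nucleation scores were taken as the log enrichment of output over input reads, centred on the mode score of non-aggregating sequences. The input and output reads came from Illumina sequencing of plasmid inserts, with sequences under 100 input reads excluded. The yeast were psi-negative, expressed Sup35N fused to peptides of 20 random codons, were induced with 100 μM copper sulfate for 24 hours, and were grown 7 days at 30°C on medium lacking adenine and uracil.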

| Substance | amyloid nucleation score |
| --- | --- |
| HSNALCLRFVLLPLSGIDIM | -0.295 ± 0.54 |
| HSSIIKSVAWAFNYDA | 0.159 ± 0.42 |
| HSSLFSYREQLYTSFCNIGM | 4.99 ± 0.067 |
| HSWAKMFMMLWGTMSRWDRA | -0.205 ± 0.62 |
| HTDCYLWLKLYSTLGILFVF | inactive |
| HTDLTSKFFYLNWCGLSLLR | 3.39 ± 0.072 |
| HTKMTIWNVVQC | -0.517 ± 0.63 |
| HTTDEISAS | 1.09 ± 0.36 |
| HVFLINLGLNCGQRYRYRSL | 6.044 ± 0.047 |
| HVKRD | 3.23 ± 0.16 |
| HVKTTYQLAFSNEQIM | -0.673 ± 0.48 |
| HVSKAVNLG | 0.52 ± 0.56 |
| HVVVDCISNCEFTCMWCSAY | 5.57 ± 0.06 |
| HVWLDLTYGNILQNRNCLTW | -0.335 ± 0.25 |
| HWFNSTRK | 0.187 ± 0.36 |
| HWLNLCP | -0.512 ± 0.48 |
| HWNMLSIENLAHVEIIRLGS | 7.085 ± 0.043 |
| HWTYTFRLNSSSSIYQNCSD | -0.71 ± 1 |
| HWYTAMVYIFKRQD | 0.974 ± 0.091 |
| HYAANVVRISYCGGHSRANF | 5.1 ± 0.077 |
| HYRDPFVKRLMKPVGRPATL | 0.192 ± 0.55 |
| HYVERWDDAHVFYGWKSDAV | inactive |
| HYVPDPDITL | -0.504 ± 0.32 |
| HYYIHSFNMYPVGSRLVPYE | -0.065 ± 0.42 |
| IAAYLLNSQYDSCNVDEKRH | -0.448 ± 0.39 |

| Substance | amyloid nucleation score |
| --- | --- |
| IAFGAGCLMWSR | 8.335 ± 0.063 |
| IAFRTSLYRD | -1.39 ± 0.48 |
| IALKFFH | 0.882 ± 0.3 |
| IASTVDFKSLIISGDPSRQF | -0.235 ± 0.46 |
| IAVATSGP | 0.84 ± 0.46 |
| IAVRDALVSVQLLPPENVGV | 1.13 ± 0.15 |
| IAVRMALGLENNKFFLIVHK | -1.44 ± 0.55 |
| IAYATPPSHGAC | 1.32 ± 0.15 |
| IAYNMRNGH | 0.949 ± 0.74 |
| ICCTSSANNSTPPQSCWTPK | 5.84 ± 0.076 |
| ICDDNVAVEWLRLTVCTFRL | 0.396 ± 0.28 |
| ICFWMACKIECCQQRTNFVS | -0.139 ± 0.26 |
| ICISWPINLCMV | 2.6 ± 0.22 |
| ICQCGYFWF | 2.8 ± 0.15 |
| ICSPVQSAPSRAEKND | -0.297 ± 0.45 |
| ICSTVSVIKT | -0.249 ± 0.64 |
| ICYFLKGAFRR | -0.493 ± 0.78 |
| ICYILILYTELVRSSLPFLG | inactive |
| IDCSFSFFVSPFRHPHSQED | 4.87 ± 0.092 |
| IDHNTSRC | 0.023 ± 0.76 |
| IDKICFKTDLIVFCRGLNPC | 1.9 ± 0.19 |
| IDKSG | 2.44 ± 0.14 |
| IDLSLNLGVRGVRQDETLFA | inactive |
| IDPADVGILSCCFLNDSKHE | 0.467 ± 0.46 |
| IDQLLGLDRSCCVNL | 0.387 ± 0.8 |

| Substance | amyloid nucleation score |
| --- | --- |
| IDSFDPGFRRHLDRSWIRRH | 0.105 ± 1.1 |
| IDVLTQLNSFRMNFYVSANI | -0.868 ± 1.1 |
| IDWIGPIYMHIAVMMVTVFQ | 4.924 ± 0.033 |
| IDYVFAAGDKWWVSVLL | -0.412 ± 1.1 |
| IEGYYGASRVRGMSMGLLWV | -0.17 ± 0.79 |
| IEKSMLVVLGINVRVSMGVG | 0.175 ± 0.24 |
| IFANVFANWHVGYLFTGSYY | 4.02 ± 0.081 |
| IFASSYVLSHYILGGHRSRK | 2.7 ± 0.1 |
| IFEHS | 0.346 ± 0.61 |
| IFFFWVLMRYW | -0.689 ± 0.55 |
| IFFLPVTCTWGTQWRL | 1.56 ± 0.15 |
| IFGSLLNMIYMV | 2.5 ± 0.21 |
| IFHCGLLRALRFSSHLYWVG | 0.505 ± 0.51 |
| IFHPSLTSRIPINTRHKVT | 4.4 ± 0.065 |
| IFIMQTHFTGRVCPSSVKLP | 4.99 ± 0.066 |
| IFNKYLVIFSIFI | 6.747 ± 0.037 |
| IFNVHMVRF | 9.317 ± 0.052 |
| IFNVSLGYLTLIMVHYEFLH | 5.733 ± 0.042 |
| IFNVSMSIVRSLVITCMWGL | 5.321 ± 0.043 |
| IFPFLDFRRFFLVYHVGPIS | 2.4 ± 0.24 |
| IFRISPSLGKRYGVRPERSW | 1.32 ± 0.38 |
| IFRSMFILTYPGSRYNDEYL | 4.13 ± 0.061 |
| IFRTFFIYKEFCGFLWCVGG | 1.02 ± 0.32 |
| IFTYCVWSFSWFW | 7.302 ± 0.053 |
| IFVLVS | 0.131 ± 0.38 |

| Substance | amyloid nucleation score |
| --- | --- |
| IFWYRCNINSGCEQVVYWGN | 5.311 ± 0.033 |
| IGCFTLR | 1.58 ± 0.088 |
| IGFDFRTA | 0.418 ± 0.62 |
| IGISWLATWPIEFTRLSRMV | 1.53 ± 0.52 |
| IGKSEYVEFRLTSSP | 0.354 ± 0.53 |
| IGLDRWLMSLRRYAMHK | -0.089 ± 0.18 |
| IGNAMHSLHSIHVRCRHSLE | 0.713 ± 0.74 |
| IGRCDELGRCRTRARACSGL | 7.78 ± 0.084 |
| IGRSMGRTFWR | 1.5 ± 0.18 |
| IGSRS | -1.25 ± 0.48 |
| IGYVEAWWVFLVGSDAVRAP | -0.018 ± 1.1 |
| IHICKQTCG | 0.812 ± 0.3 |
| IHLHYNVDNCTFELLK | -0.499 ± 0.26 |
| IHLLPLPYEVPSLLCTSRGP | 0.258 ± 0.4 |
| IHNDCKLPMFVIMFS | 6 ± 0.082 |
| IHSEFHKSY | inactive |
| IIGASCTNNSRMVLVWATVF | -0.76 ± 1 |
| IIHYAFSRNWSP | 1.54 ± 0.31 |
| IIKANVSVRYVFDKFHKMVH | 2.83 ± 0.094 |
| IIKLPWFWDAFKAARQ | -0.069 ± 0.3 |
| IINSDLMCLVNLFVNDSMRG | 8.093 ± 0.059 |
| IIRDPTACTFLVCVSYME | 6.27 ± 0.059 |
| IIWPPMSWELISLNCQCVRK | -0.413 ± 0.63 |
| IIWYTTFVDLLTIIDDGRLW | 0.499 ± 0.49 |
| IIYYIMVTFWYSVYQPFRSF | -0.081 ± 0.79 |

| Substance | amyloid nucleation score |
| --- | --- |
| IKATCAGSNIFDNLALKDAS | inactive |
| IKCFAMGETFLAKVVHCTCW | 4.04 ± 0.065 |
| IKSSAFGAGVQLAAQRSVIT | -0.432 ± 0.29 |
| IKTRKHSGIMAC | 0.552 ± 0.32 |
| ILAQNCSFYLGVTLRIARRH | 1.21 ± 0.43 |
| ILGHLYLKIKKLSFVM | -0.658 ± 1 |
| ILGISCVFY | 7.227 ± 0.072 |
| ILGLFSFPKMPMVDYNIWMR | -0.137 ± 1.1 |
| ILGLPSINSSISLHKTITDP | 2.86 ± 0.056 |
| ILIMRKENGCLRELCFFCRA | inactive |
| ILIWVVNLYAYVNYFM | 3.1 ± 0.062 |
| ILKPDMWFKGARCDTNQLNC | -0.62 ± 0.39 |
| ILKPYCVCDLSNKLE | 0.199 ± 0.4 |
| ILLGYIISR | -0.636 ± 0.79 |
| ILLRWNSTSTEVHHVGPTWV | 0.872 ± 0.42 |
| ILNLLLVCLRIFDGLYLTRY | -1.06 ± 1.1 |
| ILNNMIL | 2.55 ± 0.21 |
| ILNPFCTRFK | -2.26 ± 0.64 |
| ILSCVARGCYYTTL | -1.38 ± 1.1 |
| ILSNMGSMVFTLCNRDSMLR | -0.523 ± 1 |
| ILSPTSL | 1.26 ± 0.52 |
| ILVYASWLGYHLDICSGFRS | 1.64 ± 0.089 |
| ILWDRISFNMLRLTRCRFFF | -0.632 ± 1.1 |
| ILYGVLTPYFHAVI | -0.003 ± 0.65 |
| IMIMYFCCDMGRLGP | 8.458 ± 0.056 |

| Substance | amyloid nucleation score |
| --- | --- |
| IMKYAHFNLK | 0.788 ± 0.51 |
| IMMQDWGIGFAFIGSPCRCD | 9.01 ± 0.048 |
| IMNGLMDFMLTKVLKDMFNW | -0.249 ± 1.1 |
| IMSMGGVLMFWS | 3.66 ± 0.12 |
| IMSSHKSAYRVFLHGLCRMV | -0.028 ± 0.74 |
| IMSSVELWENHYCGDVCMIV | 7.908 ± 0.049 |
| IMTHLVSTR | 1.5 ± 0.3 |
| IMVVEQYLYYYSKVCTFFSV | inactive |
| IMVVYETSVAGPRTSRGYCL | 4.729 ± 0.041 |
| IMYVMGVVFNTMWVSA | -1.11 ± 0.62 |
| INFMAVDDKPRVVVEPCPSA | 0.623 ± 0.62 |
| INFTYMGVMIFLSLLRQTWG | -0.311 ± 0.56 |
| INLYPR | inactive |
| INTSNQFFGYLYLWVSRYRY | -1.03 ± 0.54 |
| INVLFRVSPRISAVRNVCST | -0.271 ± 0.36 |
| INVYRPFYIVRHY | 5.101 ± 0.044 |
| IPAMETSTLAGYGPYSHNFG | -0.629 ± 0.26 |
| IPCVMG | 0.004 ± 0.65 |
| IPFLLTHDEHAAGCPAMKSY | 0.223 ± 0.33 |
| IPIIGITNEVPMSVRFPSIF | -1.07 ± 0.55 |
| IPMPSCVQYYSVDYRWASLL | -1.27 ± 0.44 |
| IPMSRGVQF | 0.82 ± 0.14 |
| IPTFKDLGFISESIMYNG | -1.38 ± 0.42 |
| IPYLNFDLYWLPVI | -0.792 ± 0.48 |
| IQCTCTPDYPVLSLSVMVNF | 8.361 ± 0.078 |

| Substance | amyloid nucleation score |
| --- | --- |
| IQLIRHCSSLNRTYQVSVSR | 0.364 ± 0.3 |
| IQWFIWN | 6.806 ± 0.027 |
| IRCQSVRDIGLYFDLDWVEK | 2.28 ± 0.085 |
| IRCRVRK | 0.484 ± 0.4 |
| IRCSVVDLCESSADSTSVRP | inactive |
| IRECLVRSATSFLLDHKRRC | -0.383 ± 1 |
| IRFTKYNDGCILIMPRDVQV | -0.995 ± 0.55 |
| IRKIMVF | inactive |
| IRNTLPAAIDVSATVTFVIL | 3.17 ± 0.12 |
| IRPSLGRR | 1.79 ± 0.26 |
| IRSSWIANVLSANSRGRNNQ | 0.382 ± 0.33 |
| IRVSLFYPSG | 3.89 ± 0.051 |
| IRWAQTFILLFVCSSARPTQ | 0.712 ± 0.36 |
| IRYTFSKLRSDCFMRCARSW | 0.898 ± 0.23 |
| ISFNQHTLSYKNVIFNCAFE | 4.16 ± 0.044 |
| ISFYVCVIML | 7.433 ± 0.065 |
| ISKLSARSLSRVVNLYKGVA | 0.85 ± 0.17 |
| ISKLTTRLLIYERNFPNWGH | 3.19 ± 0.17 |
| ISLAINLCALIDATRDWSPC | 6.12 ± 0.05 |
| ISQAWVS | -0.329 ± 0.25 |
| ISRKVAGSRDCINVRSTIGL | -1.14 ± 0.44 |
| ISSHVSCKSAFEAS | 0.395 ± 0.64 |
| ISSICFRNRDNFFLRAFGIG | inactive |
| ISTIWFRLQTGARKTRLLFD | -0.735 ± 0.79 |
